Test results: CN116063506A (HUADAO SHANGHAI BIOMEDICAL CO LTD, dated 2023)

Target: T1, CD4抗原 (表面抗原分化簇4, Cluster of Differentiation 4) (UniProt P01730 26-458, limits assumed)
T1 construct: whole, on cells; also called 细胞表面的CD4抗原; Nalm6-CD4
Assay: flow cytometry on Nalm6-CD4 cells; antibody from 4 μg/mL in 4-fold dilutions, 10 concentrations; APC goat anti-mouse IgG secondary

B1: 分离的抗体(标记为CD4-14) (antibody, V domains shown)
VH: QVQLVQSGPELKKPGASVKVSCKASGYTFTDYVIHWVKQATGQGLEWIGEIYPGSGSAYSNAKFKDRVTMTADKSSNTAYMELSSLTSDDTAVYFCARRGNGTGFAYWGQGTLVTVSS
VL: DIVLTQSPASLAVSLGQRATITCKAGQSVDYDGDSYMNWYQQKPGQPPKLLIYVASNLESGIPARFSGSGSGTDFTLNIHPVEENDAATYYCQQSYKDPLTFGQGTKLEIK
notes: also called 分离抗体; 本发明的分离抗体
With B1 the EC50 was 0.152 µg/mL.
